The values that follow come from patent US20150344570A1 (published 2015).

The chains are these.
B1: GpH7-A5/GpH7-B3 variant E269_01G/GpL16-k0 (antibody, human IgG1, kappa)
heavy 1: not shown
heavy 2: not shown
light: DIVMTQSPLSLPVTPGEPASISCQASESLVHSNRNTYLHWYLQKPGQSPQLLIYKVSNRFSGVPDRFSGSGSGTDFTLKISRVEAEDVGVYYCSQNTHVPPTFGQGTKVEIERTVAAPSVFIFPPSDEQLKSGTASVVCLLNNFYPREAKVQWKVDNALQSGNSQESVTEQDSKDSTYSLSSTLTLSKADYEKHKVYACEVTHQGLSSPVTKSFNRGEC
notes: also called He Ab E269_01G
B2: GpH7-A5/GpH7-B3 variant E269_18N/GpL16-k0 (antibody, human IgG1, kappa)
heavy 1: not shown
heavy 2: not shown
light: B1 light
notes: also called He Ab E269_18N
B3: GpH7-A5/GpH7-B3 variant E269_13S/GpL16-k0 (antibody, human IgG1, kappa)
heavy 1: not shown
heavy 2: not shown
light: B1 light
notes: also called He Ab E269_13S
B4: GpH7-A5/GpH7-B3 variant E269_19Q/GpL16-k0 (antibody, human IgG1, kappa)
heavy 1: not shown
heavy 2: not shown
light: B1 light
notes: also called He Ab E269_19Q
B5: GpH7-A5/GpH7-B3 variant E269_06M/GpL16-k0 (antibody, human IgG1, kappa)
heavy 1: not shown
heavy 2: not shown
light: B1 light
notes: also called He Ab E269_06M
B6: GpH7-A5/GpH7-B3 variant A327_09D/GpL16-k0 (antibody, human IgG1, kappa)
heavy 1: not shown
heavy 2: not shown
light: B1 light
notes: also called He Ab A327_09D
B7: GpH7-A5/GpH7-B3 variant A327_10E/GpL16-k0 (antibody, human IgG1, kappa)
heavy 1: not shown
heavy 2: not shown
light: B1 light
notes: also called He Ab A327_10E
B8: GpH7-A5/GpH7-B3 variant A330_05P/GpL16-k0 (antibody, human IgG1, kappa)
heavy 1: not shown
heavy 2: not shown
light: B1 light
notes: also called He Ab A330_05P
B9: GpH7-A5/GpH7-B3 variant A327_06M/GpL16-k0 (antibody, human IgG1, kappa)
heavy 1: not shown
heavy 2: not shown
light: B1 light
notes: also called He Ab A327_06M
B10: GpH7-A5/GpH7-B3 variant A330_11K/GpL16-k0 (antibody, human IgG1, kappa)
heavy 1: not shown
heavy 2: not shown
light: B1 light
notes: also called He Ab A330_11K
B11: GpH7-A5/GpH7-B3 variant E269_08L/GpL16-k0 (antibody, human IgG1, kappa)
heavy 1: not shown
heavy 2: not shown
light: B1 light
notes: also called He Ab E269_08L
B12: GpH7-A5/GpH7-B3 variant E269_05P/GpL16-k0 (antibody, human IgG1, kappa)
heavy 1: not shown
heavy 2: not shown
light: B1 light
notes: also called He Ab E269_05P
B13: GpH7-A5/GpH7-B3 variant E269_16H/GpL16-k0 (antibody, human IgG1, kappa)
heavy 1: not shown
heavy 2: not shown
light: B1 light
notes: also called He Ab E269_16H
B14: GpH7-A5/GpH7-B3 variant A327_07I/GpL16-k0 (antibody, human IgG1, kappa)
heavy 1: not shown
heavy 2: not shown
light: B1 light
notes: also called He Ab A327_07I
B15: GpH7-A5/GpH7-B3 variant E269_04F/GpL16-k0 (antibody, human IgG1, kappa)
heavy 1: not shown
heavy 2: not shown
light: B1 light
notes: also called He Ab E269_04F
B16: GpH7-A5/GpH7-B3 variant E269_07I/GpL16-k0 (antibody, human IgG1, kappa)
heavy 1: not shown
heavy 2: not shown
light: B1 light
notes: also called He Ab E269_07I
B17: GpH7-A5/GpH7-B3 variant A330_09D/GpL16-k0 (antibody, human IgG1, kappa)
heavy 1: not shown
heavy 2: not shown
light: B1 light
notes: also called He Ab A330_09D
B18: GpH7-A5/GpH7-B3 variant A330_14T/GpL16-k0 (antibody, human IgG1, kappa)
heavy 1: not shown
heavy 2: not shown
light: B1 light
notes: also called He Ab A330_14T
B19: GpH7-A5/GpH7-B3 variant A330_08L/GpL16-k0 (antibody, human IgG1, kappa)
heavy 1: not shown
heavy 2: not shown
light: B1 light
notes: also called He Ab A330_08L
B20: GpH7-A5/GpH7-B3 variant E269_14T/GpL16-k0 (antibody, human IgG1, kappa)
heavy 1: not shown
heavy 2: not shown
light: B1 light
notes: also called He Ab E269_14T
B21: GpH7-A5/GpH7-B3 variant A327_03V/GpL16-k0 (antibody, human IgG1, kappa)
heavy 1: not shown
heavy 2: not shown
light: B1 light
notes: also called He Ab A327_03V
B22: GpH7-A5/GpH7-B3 variant A330_16H/GpL16-k0 (antibody, human IgG1, kappa)
heavy 1: not shown
heavy 2: not shown
light: B1 light
notes: also called He Ab A330_16H
B23: GpH7-A5/GpH7-B3 variant A327_13S/GpL16-k0 (antibody, human IgG1, kappa)
heavy 1: not shown
heavy 2: not shown
light: B1 light
notes: also called He Ab A327_13S
B24: GpH7-A5/GpH7-B3 variant E269_15Y/GpL16-k0 (antibody, human IgG1, kappa)
heavy 1: not shown
heavy 2: not shown
light: B1 light
notes: also called He Ab E269_15Y
B25: GpH7-A5/GpH7-B3 variant E269_02A/GpL16-k0 (antibody, human IgG1, kappa)
heavy 1: not shown
heavy 2: not shown
light: B1 light
notes: also called He Ab E269_02A
B26: GpH7-A5/GpH7-B3 variant E269_03V/GpL16-k0 (antibody, human IgG1, kappa)
heavy 1: not shown
heavy 2: not shown
light: B1 light
notes: also called He Ab E269_03V
B27: GpH7-A5/GpH7-B3 variant E269_09D/GpL16-k0 (antibody, human IgG1, kappa)
heavy 1: not shown
heavy 2: not shown
light: B1 light
notes: also called He Ab E269_09D
B28: GpH7-B3 variant P238_10E/GpL16-k0 (antibody, human IgG1, kappa)
heavy: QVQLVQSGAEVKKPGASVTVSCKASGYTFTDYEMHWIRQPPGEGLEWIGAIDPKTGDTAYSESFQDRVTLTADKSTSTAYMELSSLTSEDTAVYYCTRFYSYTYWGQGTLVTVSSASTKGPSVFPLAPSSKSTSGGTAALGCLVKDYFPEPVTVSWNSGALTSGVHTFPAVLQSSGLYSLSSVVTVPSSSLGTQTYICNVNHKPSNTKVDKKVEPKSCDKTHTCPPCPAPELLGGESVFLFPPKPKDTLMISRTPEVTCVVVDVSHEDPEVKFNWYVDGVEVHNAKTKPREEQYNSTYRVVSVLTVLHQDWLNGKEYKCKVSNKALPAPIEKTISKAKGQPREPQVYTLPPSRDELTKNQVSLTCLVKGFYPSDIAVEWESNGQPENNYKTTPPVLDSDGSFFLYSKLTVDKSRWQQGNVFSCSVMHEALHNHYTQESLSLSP
light: B1 light
notes: also called Ho Ab P238_10E
B29: GpH7-B3 variant Q295_15Y/GpL16-k0 (antibody, human IgG1, kappa)
heavy: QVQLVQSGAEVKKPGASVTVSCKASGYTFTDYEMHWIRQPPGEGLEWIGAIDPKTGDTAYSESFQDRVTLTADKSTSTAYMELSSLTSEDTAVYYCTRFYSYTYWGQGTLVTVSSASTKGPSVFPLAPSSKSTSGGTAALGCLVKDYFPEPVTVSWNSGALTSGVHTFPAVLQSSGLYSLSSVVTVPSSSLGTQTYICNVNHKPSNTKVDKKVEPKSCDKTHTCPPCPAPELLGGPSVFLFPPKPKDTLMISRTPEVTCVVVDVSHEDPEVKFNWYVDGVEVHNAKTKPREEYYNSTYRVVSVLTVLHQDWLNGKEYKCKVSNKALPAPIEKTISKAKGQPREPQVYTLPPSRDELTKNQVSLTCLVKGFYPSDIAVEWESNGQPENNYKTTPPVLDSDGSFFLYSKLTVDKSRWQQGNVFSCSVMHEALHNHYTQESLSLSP
light: B1 light
notes: also called Ho Ab Q295_15Y
B30: GpH7-B3 variant P329_01G/GpL16-k0 (antibody, human IgG1, kappa)
heavy: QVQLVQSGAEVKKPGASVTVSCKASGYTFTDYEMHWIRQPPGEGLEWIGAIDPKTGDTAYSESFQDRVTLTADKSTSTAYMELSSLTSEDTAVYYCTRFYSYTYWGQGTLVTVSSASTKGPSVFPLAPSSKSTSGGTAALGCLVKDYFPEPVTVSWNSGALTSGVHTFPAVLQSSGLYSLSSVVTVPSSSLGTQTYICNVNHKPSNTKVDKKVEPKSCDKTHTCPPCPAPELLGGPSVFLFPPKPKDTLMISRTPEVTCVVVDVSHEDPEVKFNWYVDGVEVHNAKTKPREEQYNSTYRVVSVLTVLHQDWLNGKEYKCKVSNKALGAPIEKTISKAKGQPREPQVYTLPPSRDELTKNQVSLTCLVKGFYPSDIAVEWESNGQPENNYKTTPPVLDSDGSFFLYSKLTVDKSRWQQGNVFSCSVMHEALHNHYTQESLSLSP
light: B1 light
notes: also called Ho Ab P329_01G
B31: GpH7-B3 variant Q295_16H/GpL16-k0 (antibody, human IgG1, kappa)
heavy: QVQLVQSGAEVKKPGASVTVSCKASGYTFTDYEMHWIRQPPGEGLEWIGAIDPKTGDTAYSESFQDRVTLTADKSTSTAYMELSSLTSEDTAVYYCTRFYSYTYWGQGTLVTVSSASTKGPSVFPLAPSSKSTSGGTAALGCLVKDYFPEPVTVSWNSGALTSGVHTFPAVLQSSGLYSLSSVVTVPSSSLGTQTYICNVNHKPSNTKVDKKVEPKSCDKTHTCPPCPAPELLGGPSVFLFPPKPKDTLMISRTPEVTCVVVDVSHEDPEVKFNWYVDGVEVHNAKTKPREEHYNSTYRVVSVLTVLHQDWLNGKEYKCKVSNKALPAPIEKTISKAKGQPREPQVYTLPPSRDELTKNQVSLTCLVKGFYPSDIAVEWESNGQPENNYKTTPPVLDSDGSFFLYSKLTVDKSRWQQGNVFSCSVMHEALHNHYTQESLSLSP
light: B1 light
notes: also called Ho Ab Q295_16H
B32: GpH7-B3 variant P271_14T/GpL16-k0 (antibody, human IgG1, kappa)
heavy: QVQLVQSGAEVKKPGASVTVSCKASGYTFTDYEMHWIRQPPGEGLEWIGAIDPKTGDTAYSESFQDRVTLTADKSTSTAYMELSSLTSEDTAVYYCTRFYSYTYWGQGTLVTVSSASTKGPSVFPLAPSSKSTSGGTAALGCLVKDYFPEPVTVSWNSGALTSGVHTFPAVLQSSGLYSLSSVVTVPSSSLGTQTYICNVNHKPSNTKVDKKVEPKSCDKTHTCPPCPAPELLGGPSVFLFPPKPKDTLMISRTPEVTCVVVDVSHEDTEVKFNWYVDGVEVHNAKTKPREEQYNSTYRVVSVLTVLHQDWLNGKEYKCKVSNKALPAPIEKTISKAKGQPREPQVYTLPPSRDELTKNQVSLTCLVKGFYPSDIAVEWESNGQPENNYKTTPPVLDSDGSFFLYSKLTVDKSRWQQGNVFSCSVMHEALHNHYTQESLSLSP
light: B1 light
notes: also called Ho Ab P271_14T
B33: GpH7-B3 variant Q295_11K/GpL16-k0 (antibody, human IgG1, kappa)
heavy: not shown
light: B1 light
notes: also called Ho Ab Q295_11K
B34: GpH7-B3 variant P271_02A/GpL16-k0 (antibody, human IgG1, kappa)
heavy: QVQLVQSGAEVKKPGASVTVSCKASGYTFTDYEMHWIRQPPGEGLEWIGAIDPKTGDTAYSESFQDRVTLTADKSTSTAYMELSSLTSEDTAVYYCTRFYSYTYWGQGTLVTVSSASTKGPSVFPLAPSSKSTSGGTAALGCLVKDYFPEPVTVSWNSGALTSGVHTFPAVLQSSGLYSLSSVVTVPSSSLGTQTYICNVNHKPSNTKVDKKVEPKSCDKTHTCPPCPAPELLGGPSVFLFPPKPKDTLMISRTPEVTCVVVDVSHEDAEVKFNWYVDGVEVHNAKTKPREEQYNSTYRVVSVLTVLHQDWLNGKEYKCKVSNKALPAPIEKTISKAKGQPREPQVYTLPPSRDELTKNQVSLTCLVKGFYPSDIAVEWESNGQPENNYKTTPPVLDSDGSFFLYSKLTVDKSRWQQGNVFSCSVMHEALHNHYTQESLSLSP
light: B1 light
notes: also called Ho Ab P271_02A
B35: GpH7-B3 variant Q295_09D/GpL16-k0 (antibody, human IgG1, kappa)
heavy: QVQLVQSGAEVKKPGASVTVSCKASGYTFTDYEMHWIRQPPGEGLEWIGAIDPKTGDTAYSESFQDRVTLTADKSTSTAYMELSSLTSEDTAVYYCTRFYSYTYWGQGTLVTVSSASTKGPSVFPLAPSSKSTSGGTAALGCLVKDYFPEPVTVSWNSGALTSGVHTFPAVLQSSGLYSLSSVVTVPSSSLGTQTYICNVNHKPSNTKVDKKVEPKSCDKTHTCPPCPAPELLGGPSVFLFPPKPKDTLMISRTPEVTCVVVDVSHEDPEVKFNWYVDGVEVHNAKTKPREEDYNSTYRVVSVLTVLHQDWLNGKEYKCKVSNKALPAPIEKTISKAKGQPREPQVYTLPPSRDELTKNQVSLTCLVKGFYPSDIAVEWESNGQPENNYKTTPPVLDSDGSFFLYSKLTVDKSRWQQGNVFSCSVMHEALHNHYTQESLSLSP
light: B1 light
notes: also called Ho Ab Q295_09D
B36: GpH7-B3 variant P329_02A/GpL16-k0 (antibody, human IgG1, kappa)
heavy: not shown
light: B1 light
notes: also called Ho Ab P329_02A
B37: GpH7-B3 variant P271_15Y/GpL16-k0 (antibody, human IgG1, kappa)
heavy: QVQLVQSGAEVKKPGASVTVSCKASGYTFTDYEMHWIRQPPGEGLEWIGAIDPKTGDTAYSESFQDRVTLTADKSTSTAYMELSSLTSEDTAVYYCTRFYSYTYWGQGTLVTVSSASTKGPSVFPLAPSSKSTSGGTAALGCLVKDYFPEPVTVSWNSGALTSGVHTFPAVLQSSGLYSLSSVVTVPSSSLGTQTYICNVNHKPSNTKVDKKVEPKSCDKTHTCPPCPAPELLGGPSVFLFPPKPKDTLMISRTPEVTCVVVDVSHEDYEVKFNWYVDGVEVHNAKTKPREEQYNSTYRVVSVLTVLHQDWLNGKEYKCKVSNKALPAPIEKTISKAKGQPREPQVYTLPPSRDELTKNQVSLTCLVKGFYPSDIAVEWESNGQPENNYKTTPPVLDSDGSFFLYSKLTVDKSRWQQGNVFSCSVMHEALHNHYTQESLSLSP
light: B1 light
notes: also called Ho Ab P271_15Y
B38: GpH7-B3 variant P271_16H/GpL16-k0 (antibody, human IgG1, kappa)
heavy: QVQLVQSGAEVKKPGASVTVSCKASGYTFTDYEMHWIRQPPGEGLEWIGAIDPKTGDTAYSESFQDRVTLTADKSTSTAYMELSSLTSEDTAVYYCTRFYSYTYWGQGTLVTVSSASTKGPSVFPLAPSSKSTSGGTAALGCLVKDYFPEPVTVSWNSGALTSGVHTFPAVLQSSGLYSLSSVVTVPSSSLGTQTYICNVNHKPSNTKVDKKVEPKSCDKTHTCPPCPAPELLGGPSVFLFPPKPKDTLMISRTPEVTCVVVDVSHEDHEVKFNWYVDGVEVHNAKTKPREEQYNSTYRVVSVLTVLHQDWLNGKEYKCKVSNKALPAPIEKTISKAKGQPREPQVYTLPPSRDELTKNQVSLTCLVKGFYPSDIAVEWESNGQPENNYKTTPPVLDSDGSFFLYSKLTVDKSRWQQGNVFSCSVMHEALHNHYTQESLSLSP
light: B1 light
notes: also called Ho Ab P271_16H
B39: GpH7-B3 variant P238_15Y/GpL16-k0 (antibody, human IgG1, kappa)
heavy: not shown
light: B1 light
notes: also called Ho Ab P238_15Y
B40: GpH7-B3 variant P271_03V/GpL16-k0 (antibody, human IgG1, kappa)
heavy: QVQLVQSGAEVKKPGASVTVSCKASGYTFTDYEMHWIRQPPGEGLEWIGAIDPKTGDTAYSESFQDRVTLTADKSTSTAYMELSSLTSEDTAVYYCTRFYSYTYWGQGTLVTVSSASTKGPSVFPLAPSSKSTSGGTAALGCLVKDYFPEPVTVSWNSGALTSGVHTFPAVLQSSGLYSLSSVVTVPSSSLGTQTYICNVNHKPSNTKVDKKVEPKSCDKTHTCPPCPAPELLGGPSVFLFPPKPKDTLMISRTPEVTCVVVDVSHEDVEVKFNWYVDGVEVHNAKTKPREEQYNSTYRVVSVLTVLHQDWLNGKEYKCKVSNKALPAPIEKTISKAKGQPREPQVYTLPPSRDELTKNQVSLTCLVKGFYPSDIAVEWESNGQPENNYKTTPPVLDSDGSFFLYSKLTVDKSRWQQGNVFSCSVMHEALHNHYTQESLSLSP
light: B1 light
notes: also called Ho Ab P271_03V

The first assay deals with T1, FcγRIa (human, UniProt P12314 16-292).
T1 construct: extracellular domain; also called FcgRI; 1a
T1 sequence (P12314 16-292): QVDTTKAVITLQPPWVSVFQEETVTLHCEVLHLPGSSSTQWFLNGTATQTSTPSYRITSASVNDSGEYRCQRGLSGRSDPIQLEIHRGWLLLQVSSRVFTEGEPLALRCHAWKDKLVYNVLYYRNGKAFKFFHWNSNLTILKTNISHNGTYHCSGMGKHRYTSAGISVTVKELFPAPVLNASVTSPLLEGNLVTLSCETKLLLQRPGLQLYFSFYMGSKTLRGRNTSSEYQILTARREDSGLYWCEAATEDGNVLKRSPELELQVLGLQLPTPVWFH
Nature of the assay: SPR (Biacore); He Ab relative to HeCon Ab = 100. On the procedure:
(§1) Analysis of interaction between objective antibody and the FcγR was carried out using Biacore T100 (GE Healthcare). HBS-EP+ (GE Healthcare) was used as the running buffer, and the measurement temperature was set to 25° C. Chips produced by immobilizing the antigen peptide by the amine coupling method to a Series S Sencor Chip CM5 (GE Healthcare), or alternatively, chips produced by allowing preliminarily biotinylated antigen peptides to interact with and immobilize onto a Series S Sensor Chip SA (certified) (GE Healthcare) were used. Antibodies of interest were captured onto an antigen peptide-immobilized chip, and allowed to interact to each FcγR diluted with running buffer. To regenerate and repeatedly use the chip, the antibodies captured on the chip were washed off by reacting 10 mM glycine-HCl, pH 1.5.
As for B1, the He/Con_1a was 104 % of control.

As to B2, the He/Con_1a is 102 % of control.

Consider B3, for which the He/Con_1a is 103 % of control.

Turning to B4, the He/Con_1a was 105 % of control.

In the case of B5, the He/Con_1a is 104 % of control.

Consider B6, for which the He/Con_1a was 103 % of control.

B7: the He/Con_1a is 103 % of control.

Regarding B8, the He/Con_1a is 101 % of control.

For B9, the He/Con_1a is 103 % of control.

For B10, the He/Con_1a is 103 % of control.

Regarding B11, the He/Con_1a is 104 % of control.

Consider B12, for which the He/Con_1a is 102 % of control.

As to B13, the He/Con_1a was 106 % of control.

Take B14: the He/Con_1a is 104 % of control.

Consider B15, for which the He/Con_1a was 103 % of control.

Take B16: the He/Con_1a was 103 % of control.

For B17, the He/Con_1a is 109 % of control.

Take B18: the He/Con_1a was 105 % of control.

With B19, the He/Con_1a is 107 % of control.

For B20, the He/Con_1a is 106 % of control.

Turning to B21, the He/Con_1a was 103 % of control.

For B22, the He/Con_1a was 106 % of control.

Take B23: the He/Con_1a was 102 % of control.

For the molecule B24, the He/Con_1a is 106 % of control.

As to B25, the He/Con_1a is 104 % of control.

As to B26, the He/Con_1a was 103 % of control.

For the molecule B27, the He/Con_1a was 107 % of control.

In another assay the target is T1, FcγRIa. Nature of the assay: SPR (Biacore); Ho Ab relative to HoCon Ab = 100. On the procedure: as §1
In general terms: SPR reads the build-up and loss of mass on a sensor chip optically.
In the case of B28, the Ho/Con_1a was 91.8 % of control.

On to B29, for which the Ho/Con_1a is 97 % of control.

As to B30, the Ho/Con_1a is 89.5 % of control.

In the case of B31, the Ho/Con_1a is 99.1 % of control.

Turning to B32, the Ho/Con_1a is 99.5 % of control.

For the molecule B33, the Ho/Con_1a is 99.9 % of control.

With B34, the Ho/Con_1a was 102 % of control.

As to B35, the Ho/Con_1a was 96.8 % of control.

B36: the Ho/Con_1a is 98.2 % of control.

Consider B37, for which the Ho/Con_1a is 99.4 % of control.

As for B38, the Ho/Con_1a is 99.4 % of control.

With B39, the Ho/Con_1a was 99 % of control.

B40: the Ho/Con_1a was 102 % of control.
